Test results from patent publication US20230212268A1 (UNM RAINFOREST INNOVATIONS, published 2023).
Read-outs that look alike come from different tables or passages of the source.

What was measured:
[1] = molecular target: T1, recombinant EBOV glycoprotein (EBOV (Zaire ebolavirus), UniProt Q05320 33-650)
T1 sequence: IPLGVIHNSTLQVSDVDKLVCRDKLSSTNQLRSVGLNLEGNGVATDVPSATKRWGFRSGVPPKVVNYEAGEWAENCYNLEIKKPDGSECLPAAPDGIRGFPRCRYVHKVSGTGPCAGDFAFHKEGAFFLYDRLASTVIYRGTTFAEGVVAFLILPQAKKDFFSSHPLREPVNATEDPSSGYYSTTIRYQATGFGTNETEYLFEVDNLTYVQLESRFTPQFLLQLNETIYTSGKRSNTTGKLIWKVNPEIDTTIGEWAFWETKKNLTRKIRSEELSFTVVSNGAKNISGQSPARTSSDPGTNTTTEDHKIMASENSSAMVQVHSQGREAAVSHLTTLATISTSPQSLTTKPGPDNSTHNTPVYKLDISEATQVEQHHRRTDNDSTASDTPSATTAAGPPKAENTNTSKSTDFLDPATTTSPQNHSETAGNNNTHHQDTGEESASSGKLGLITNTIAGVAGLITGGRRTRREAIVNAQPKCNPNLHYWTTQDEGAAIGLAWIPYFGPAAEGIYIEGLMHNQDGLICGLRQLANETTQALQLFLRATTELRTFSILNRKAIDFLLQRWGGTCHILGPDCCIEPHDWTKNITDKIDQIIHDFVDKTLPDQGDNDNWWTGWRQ

[2] = molecular target: recombinant BDBV glycoprotein (BDBV (Bundibugyo ebolavirus)); assay: ELISA dose response, GP coated
[3] = molecular target: recombinant BDBV glycoprotein (BDBV (Bundibugyo ebolavirus)); assay: ELISA dose response, GP coated; remark: listed apart in the source
[4] = molecular target: T2, recombinant SUDV glycoprotein (SUDV (Sudan ebolavirus), UniProt Q7T9D9 33-650); assay: ELISA dose-response fit, reference scFv22-1
T2 sequence: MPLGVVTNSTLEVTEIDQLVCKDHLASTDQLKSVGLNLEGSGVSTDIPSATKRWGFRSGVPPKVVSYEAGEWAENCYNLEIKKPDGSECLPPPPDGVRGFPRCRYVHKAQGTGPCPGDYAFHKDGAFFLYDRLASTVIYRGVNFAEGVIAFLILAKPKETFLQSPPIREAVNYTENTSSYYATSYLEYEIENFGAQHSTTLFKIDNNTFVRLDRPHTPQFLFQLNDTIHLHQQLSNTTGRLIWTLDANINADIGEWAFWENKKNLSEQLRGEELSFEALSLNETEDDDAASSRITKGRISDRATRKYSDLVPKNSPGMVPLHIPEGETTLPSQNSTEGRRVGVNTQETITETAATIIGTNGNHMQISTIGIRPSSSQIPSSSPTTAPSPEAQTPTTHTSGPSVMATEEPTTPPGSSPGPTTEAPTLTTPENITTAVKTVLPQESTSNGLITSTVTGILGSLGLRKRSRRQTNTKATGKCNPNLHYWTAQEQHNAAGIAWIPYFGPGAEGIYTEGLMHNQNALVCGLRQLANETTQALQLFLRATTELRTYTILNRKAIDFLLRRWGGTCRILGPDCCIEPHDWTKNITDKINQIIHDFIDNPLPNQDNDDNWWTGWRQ

[5] = molecular target: T3, recombinant TAFV glycoprotein (TAFV (Tai Forest virus), UniProt Q66810 33-650); assay: ELISA dose-response fit, reference scFv22-1
T3 sequence: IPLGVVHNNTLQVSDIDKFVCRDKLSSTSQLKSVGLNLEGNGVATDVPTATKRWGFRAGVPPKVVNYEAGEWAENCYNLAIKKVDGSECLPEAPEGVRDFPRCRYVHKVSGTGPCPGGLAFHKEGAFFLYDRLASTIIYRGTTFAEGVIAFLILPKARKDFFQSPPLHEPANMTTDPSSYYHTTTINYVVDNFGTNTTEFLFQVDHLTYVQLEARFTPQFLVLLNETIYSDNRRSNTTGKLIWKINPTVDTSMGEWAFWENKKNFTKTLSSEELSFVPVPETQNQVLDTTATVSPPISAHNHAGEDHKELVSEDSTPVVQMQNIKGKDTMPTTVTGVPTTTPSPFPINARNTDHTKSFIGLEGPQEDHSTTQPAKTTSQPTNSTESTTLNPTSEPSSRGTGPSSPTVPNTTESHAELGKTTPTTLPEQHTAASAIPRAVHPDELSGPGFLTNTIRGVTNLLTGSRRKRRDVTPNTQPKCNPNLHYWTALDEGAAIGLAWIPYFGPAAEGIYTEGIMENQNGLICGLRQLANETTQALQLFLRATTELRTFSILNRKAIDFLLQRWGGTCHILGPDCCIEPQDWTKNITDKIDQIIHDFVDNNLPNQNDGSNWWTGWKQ

[6] = molecular target: T4, recombinant MARV glycoprotein (MARV (marburgvirus, Ravn), UniProt Q1PDC7 19-648); assay: ELISA dose-response fit, reference scFv22-1
T4 sequence: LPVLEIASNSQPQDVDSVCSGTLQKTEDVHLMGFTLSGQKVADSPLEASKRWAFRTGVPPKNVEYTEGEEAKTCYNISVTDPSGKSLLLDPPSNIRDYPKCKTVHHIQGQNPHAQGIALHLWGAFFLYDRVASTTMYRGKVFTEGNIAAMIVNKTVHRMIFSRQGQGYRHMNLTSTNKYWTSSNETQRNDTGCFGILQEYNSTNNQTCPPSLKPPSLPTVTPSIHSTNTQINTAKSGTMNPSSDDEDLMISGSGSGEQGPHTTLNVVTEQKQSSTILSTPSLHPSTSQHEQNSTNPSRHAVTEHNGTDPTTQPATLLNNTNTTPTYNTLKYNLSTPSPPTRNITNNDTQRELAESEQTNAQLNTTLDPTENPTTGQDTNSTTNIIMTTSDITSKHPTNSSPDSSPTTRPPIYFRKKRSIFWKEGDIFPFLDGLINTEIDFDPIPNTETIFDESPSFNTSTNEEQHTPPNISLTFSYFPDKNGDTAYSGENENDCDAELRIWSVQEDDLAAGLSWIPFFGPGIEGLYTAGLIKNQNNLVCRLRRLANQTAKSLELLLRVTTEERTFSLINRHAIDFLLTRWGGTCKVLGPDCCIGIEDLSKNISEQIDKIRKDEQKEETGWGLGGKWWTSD

B1: EbovGPscFv4-2 (scFv)
scFv: MAWSHPQFEKTGSGGAELVKSGASVKLSCTASGFNIKDDYMHWVKQRPEQGLEWIGWIDPENGDTEYASKFQGKATITADTSSNTAYLQLSSLTSEDTAVYYCTTYYYGSAWFAYWGQGTLVTVSAGGGGSGGGGSGGGGSGGGGSASLSVSVGETVTITCRASGNIHNYLAWYQQKQGKSPQLLVYNAKTLADGVPSRFSGSGSGTQYSLKINNLQPEDFGSYYCQHFWSTPYTFGGGTKLEIKRADAAPTVSIFPPSSEQLTSGGASVVCFLNNFTHCQELQQDECS
[1]
  EC50: 4 µg/mL
[2]
  EC50: 8.19 µg/mL
[3]
  EC50: < 9 µg/mL
[4]
  fold affinity against scFv22-1: ~2 fold
[5]
  fold affinity against scFv22-1: ~2 fold
[6]
  fold affinity against scFv22-1: ~2 fold
